The values below come from patent US7276258B2, “Herbal extract and compound lupinoside and its analogues as anti-diabetic type II drugs from plant Pueraria tuberosa” (Council of Scientific & Industrial Research, priority 2004, dated 2007).

The target of the assay is T1, insulin receptor (Mus musculus, UniProt P15208).
T1 construct: endogenous in cells; host or cells: 3T3-L1 adipocytes (membrane fraction solubilized with lithium diiodosalicylate / 0.1% Triton X-100)
Nature of the assay: Scatchard analysis of 125I-insulin binding to solubilized receptor preparation from 3T3L1 adipocytes. The following applies: insulin alone.

T1 sequence (P15208 28-748 limits assumed): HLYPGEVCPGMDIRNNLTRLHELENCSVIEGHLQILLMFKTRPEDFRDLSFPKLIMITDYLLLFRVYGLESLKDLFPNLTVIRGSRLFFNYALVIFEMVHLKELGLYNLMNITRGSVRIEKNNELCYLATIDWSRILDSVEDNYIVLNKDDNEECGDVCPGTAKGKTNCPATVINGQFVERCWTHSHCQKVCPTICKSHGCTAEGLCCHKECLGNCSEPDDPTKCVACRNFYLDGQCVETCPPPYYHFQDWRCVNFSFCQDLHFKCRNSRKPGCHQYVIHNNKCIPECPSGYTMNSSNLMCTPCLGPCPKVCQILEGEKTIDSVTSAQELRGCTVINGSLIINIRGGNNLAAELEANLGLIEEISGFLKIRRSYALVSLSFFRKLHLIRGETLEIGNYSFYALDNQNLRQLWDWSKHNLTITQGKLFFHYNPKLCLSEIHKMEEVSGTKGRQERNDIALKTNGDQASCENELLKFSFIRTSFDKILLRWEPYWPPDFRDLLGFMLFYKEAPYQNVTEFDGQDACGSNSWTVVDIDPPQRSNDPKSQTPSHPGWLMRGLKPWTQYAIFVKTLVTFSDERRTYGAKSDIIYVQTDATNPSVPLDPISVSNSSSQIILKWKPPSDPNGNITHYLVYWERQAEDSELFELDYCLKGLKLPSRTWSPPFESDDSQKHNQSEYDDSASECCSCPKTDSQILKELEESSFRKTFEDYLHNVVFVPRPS
T1 sequence (P15208 753-1372 partner limits assumed): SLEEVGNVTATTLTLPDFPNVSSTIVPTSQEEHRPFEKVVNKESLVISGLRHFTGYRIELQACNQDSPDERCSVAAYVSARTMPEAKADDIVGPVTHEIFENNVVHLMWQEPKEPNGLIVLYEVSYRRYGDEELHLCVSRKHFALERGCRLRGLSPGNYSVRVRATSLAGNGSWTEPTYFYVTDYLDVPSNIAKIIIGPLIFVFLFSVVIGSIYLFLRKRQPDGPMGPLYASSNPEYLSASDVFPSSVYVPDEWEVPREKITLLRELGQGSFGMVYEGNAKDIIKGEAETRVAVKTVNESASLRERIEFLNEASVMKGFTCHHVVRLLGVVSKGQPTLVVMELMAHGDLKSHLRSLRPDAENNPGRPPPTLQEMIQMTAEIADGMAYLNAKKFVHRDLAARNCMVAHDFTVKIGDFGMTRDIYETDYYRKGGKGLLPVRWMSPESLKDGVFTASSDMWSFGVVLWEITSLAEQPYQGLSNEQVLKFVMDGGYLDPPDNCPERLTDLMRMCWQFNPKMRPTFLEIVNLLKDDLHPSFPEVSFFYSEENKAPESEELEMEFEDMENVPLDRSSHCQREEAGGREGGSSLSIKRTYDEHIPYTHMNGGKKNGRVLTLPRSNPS
Method: Radiolabeled insulin binding to solubilized receptor preparations. Control and FFA treated 3T3L1 adipocytes were first washed thrice with 0.02M Phosphate Buffer (pH-7.4) containing 0.14M NaCl and then resuspended in Lysis Buffer (20 mM Tris-HCl, 40 mM NaCl, 5 mM EDTA, 5 mM Iodoacetamide, pH-8.4) supplemented with protease inhibitors (1 μg/ml aprotinin, 1 μg/ml pepstatin, 1 μg/ml leupeptin, 2 mM phenyl methyl sulfonyl fluoride and 1 μg/ml trypsin inhibitor). These cells were then freeze thawed thrice at −70° C. and centrifuged at 10,000 rpm for 15 min at 4° C. The pellet collected was resuspended in Lysis Buffer, sonicated and again centrifuged at 10,000 rpm for 15–20 min at 4° C. The supernatant was dialysed overnight against 10 mM Tris-HCl (pH-7.4) buffer and volume reduced by lyophilisation. […]
Scatchard Analysis. […] After the termination of the incubations, free and bound radioactivity was separated by the addition of 500 μl of 0.5% chilled polyethylene glycol (PEG; MW 6000). […] The radioactivity in the final pellet was measured in a ^125I-gamma counter. The specific binding was calculated by subtracting non-specific binding from total binding. Data were then analyzed by Scatchard analysis to determine the affinity and capacity of insulin receptor binding in the presence or absence of palmitic acid (see FIG. 1b).

As to “insulin: recombinant human insulin, radiolabelled with 125I for binding”, the “Ka of insulin binding to solubilized receptor” value turned out to be 1.6e+09 M⁻¹.
